Earlier results, collected in publication PMC5533512.

Biological target: CD40 (Homo sapiens) (UniProt P25942)
Chain of UniProt P25942 (P25942 21-193): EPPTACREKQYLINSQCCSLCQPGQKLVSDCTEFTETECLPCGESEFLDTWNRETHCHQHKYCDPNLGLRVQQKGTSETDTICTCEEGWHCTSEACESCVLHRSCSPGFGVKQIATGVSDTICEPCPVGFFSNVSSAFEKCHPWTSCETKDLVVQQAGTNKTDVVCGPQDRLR

Kd: 1 nM
Substance: dacetuzumab
